Measured values taken from US20260242478A1 (published 2026).
Where no end group is shown, it is not given here.

B1: Phage-1173 (peptide)
peptide: YCDGHLQMYMMKCL
modifications: cysteine pairing not given here; also: displayed on phage by fusion to pIII, linker and pIII sequence not given here
notes: Clonal phage of the Peptide-87 library; not shown: fused to the pIII filament of the bacteriophage
B2: Phage-1169 (peptide)
peptide: YCEGHVAEYRAKCL
modifications: cysteine pairing not given here; also: displayed on phage by fusion to pIII, linker and pIII sequence not given here
notes: as for B1
B3: Phage-1170 (peptide)
peptide: YCQGHLPQYIEKCL
modifications: cysteine pairing not given here; also: displayed on phage by fusion to pIII, linker and pIII sequence not given here
notes: as for B1
B4: Phage-1172 (peptide)
peptide: YCDGHEQQYMEKCL
modifications: cysteine pairing not given here; also: displayed on phage by fusion to pIII, linker and pIII sequence not given here
notes: as for B1
B5: Phage-1174 (peptide)
peptide: YCEGHLYEYMWKCL
modifications: cysteine pairing not given here; also: displayed on phage by fusion to pIII, linker and pIII sequence not given here
notes: as for B1
B6: Phage-1171 (peptide)
peptide: YCEGHAAAYMGKCL
modifications: cysteine pairing not given here; also: displayed on phage by fusion to pIII, linker and pIII sequence not given here
notes: as for B1
B7: Phage-1175 (peptide)
peptide: YCVGHSEQYMAKCL
modifications: cysteine pairing not given here; also: displayed on phage by fusion to pIII, linker and pIII sequence not given here
notes: as for B1
B8: Phage-1177 (peptide)
peptide: YCEGHAEQYMKKCL
modifications: cysteine pairing not given here; also: displayed on phage by fusion to pIII, linker and pIII sequence not given here
notes: as for B1
B9: Phage-1176 (peptide)
peptide: YCDGHEAEYMWKCL
modifications: cysteine pairing not given here; also: displayed on phage by fusion to pIII, linker and pIII sequence not given here
notes: as for B1

target: T1, Anti-CD28 Fab (SEQ ID NOs: 696, 697); assay: phage ELISA, clonal phage on biotinylated anti-CD28 Fab captured on neutravidin plates;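 note: crude clonal phage supernatants added to wells pretreated with CD28 antigen or with blocking buffer only, bound phage detected by HRP-linked anti-M13 antibody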
T1 construct: Biotinylated and captured on neutravidin coated plates in the phage ELISA
T1 sequence (VH, as listed by the source, chain 1 of 2): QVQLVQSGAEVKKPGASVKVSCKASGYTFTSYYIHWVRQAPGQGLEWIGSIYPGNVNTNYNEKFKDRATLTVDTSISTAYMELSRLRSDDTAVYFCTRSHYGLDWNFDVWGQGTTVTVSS
T1 sequence (VL, as listed by the source, chain 2 of 2): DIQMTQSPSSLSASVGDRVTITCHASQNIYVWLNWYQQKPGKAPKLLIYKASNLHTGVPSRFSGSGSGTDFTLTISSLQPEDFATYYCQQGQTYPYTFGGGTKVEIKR
Protocol: (§1) After panning, phage infected bacteria were plated out and colonies picked into 96 well blocks. Clonal phage was then amplified and separated from bacterial cells via centrifugation.
(§2) Clonal phage were harvested as crude supematants and screened via standard ELISAs. […] Prior to the addition of clonal phage, wells were incubated with blocking buffer and CD28 antigen or blocking buffer alone. Without washing or aspirating, clonal phage supematants were then added to the wells and incubated for a short time. Wells were then washed followed by detection of bound phage using a horse radish conjugated anti-M13 antibody. Clonal phage of interest were then sent for sequence analysis.

In the case of YCDGHLEQYMLKCL [Phage-1142], the “Anti-CD28 Fab signal (phage binding ELISA)” value is reported as 1.24.

target: T1, Anti-CD28 Fab (SEQ ID NOs: 696, 697); assay: phage ELISA on captured anti-CD28 Fab, wells pre-incubated with CD28 antigen as competitor;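 note: crude clonal phage supernatants added without washing, bound phage read out by HRP-coupled anti-M13 antibody, reference wells given blocking buffer only instead of CD28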
Protocol: as §1, §2

YCDGHLEQYMLKCL [Phage-1142] was tested, and the “Anti-CD28 Fab signal in the presence of CD28 (phage binding ELISA)” value was 0.09.

target: T2, Anti-CD28 Fab (SEQ ID NOs: 696, 697); assay: phage ELISA on captured anti-CD28 Fab, wells first incubated with CD28 antigen (competitor)
T2 construct: Biotinylated and captured on neutravidin coated plates in the phage ELISA
T2 sequence (VH, as listed by the source, chain 1 of 2): as the sequence (VH, as listed by the source, chain 1 of 2) above
T2 sequence (VL, as listed by the source, chain 2 of 2): as the sequence (VL, as listed by the source, chain 2 of 2) above
Protocol: as §1, §2

In order of falling “Anti-CD28 Fab signal in the presence of CD28 (phage binding ELISA)” value:
1. YCEGHSTEYIQKCL [Phage-1144]  0.09
2. YCEGHSAEHMPKCL [Phage-1146]  0.09
3. YCEGHAAEYLWKCL [Phage-1154]  0.09
4. YCDGHRPEYMSKCL [Phage-1155]  0.07
5. YCAGHAPEYISKCL [Phage-1152]  0.07
6. YCEGHIGIYMSKCL [Phage-1143]  0.07
7. YCDGHEARYMQKCL [Phage-1148]  0.07
8. YCVGHYPEYMEKCL [Phage-1147]  0.07
9. YCAGHLDIYLAKCL [Phage-1151]  0.07
10. YCDGHSQEYMSKCL [Phage-1149]  0.06
11. YCDGHSMMYMQKCL [Phage-1145]  0.06
12. YCHGHLPQYMSKCM [Phage-1150]  0.06
13. YCDGHSWEYLGKCL [Phage-1153]  0.05

target: Anti-CD28 Fab (SEQ ID NOs: 696, 697); assay: phage binding ELISA on captured anti-CD28 Fab; competitor CD28 antigen pre-incubated in the wells
Target sequence in this assay (VH, as listed by the source, chain 1 of 2): as the sequence (VH, as listed by the source, chain 1 of 2) above
Target sequence in this assay (VL, as listed by the source, chain 2 of 2): as the sequence (VL, as listed by the source, chain 2 of 2) above
Protocol: as §1, §2

In order of rising “Anti-CD28 Fab signal in the presence of CD28” value:
1. B3  0.06
2. B4  0.06
3. B7  0.06
4. B1  0.07
5. B5  0.07
6. B8  0.07
7. B6  0.08
8. B2  0.09
9. B9  0.1

target: T2, Anti-CD28 Fab (SEQ ID NOs: 696, 697); assay: phage ELISA, clonal phage on biotinylated anti-CD28 Fab captured on neutravidin, anti-M13-HRP detection
Protocol: as §1, §2

In order of falling “Anti-CD28 Fab signal (phage binding ELISA)” value:
1. YCEGHSTEYIQKCL [Phage-1144]  1.23
2. YCEGHSAEHMPKCL [Phage-1146]  1.23
3. YCEGHIGIYMSKCL [Phage-1143]  1.23
4. YCDGHSMMYMQKCL [Phage-1145]  1.23
5. YCVGHYPEYMEKCL [Phage-1147]  1.22
6. YCAGHAPEYISKCL [Phage-1152]  1.21
7. YCDGHEARYMQKCL [Phage-1148]  1.21
8. YCDGHSQEYMSKCL [Phage-1149]  1.21
9. YCAGHLDIYLAKCL [Phage-1151]  1.21
10. YCHGHLPQYMSKCM [Phage-1150]  1.21
11. YCDGHSWEYLGKCL [Phage-1153]  1.2
12. YCDGHRPEYMSKCL [Phage-1155]  1.18
13. YCEGHAAEYLWKCL [Phage-1154]  1.18

target: Anti-CD28 Fab (SEQ ID NOs: 696, 697); assay: phage binding ELISA; biotinylated anti-CD28 Fab on neutravidin plate, clonal phage supernatant, anti-M13 HRP;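 note: crude clonal phage supernatants screened after wells were preincubated either with CD28 antigen in blocking buffer or with blocking buffer only, phage added without washing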
Target sequence in this assay (VH, as listed by the source, chain 1 of 2): as the sequence (VH, as listed by the source, chain 1 of 2) above
Target sequence in this assay (VL, as listed by the source, chain 2 of 2): as the sequence (VL, as listed by the source, chain 2 of 2) above
Protocol: as §1, §2

In order of falling “Anti-CD28 Fab (SEQ ID NOs: 696, 697) signal” value:
1. B2  1.15
2. B1  1.14
3. B3  1.14
4. B4  1.14
5. B6  1.14
6. B5  1.13
7. B7  1.13
8. B9  1.13
9. B8  1.12

target: T3, Anti-CD28 Fab (SEQ ID NOs: 696, 697); assay: phage binding ELISA; biotinylated anti-CD28 Fab on neutravidin plate, clonal phage supernatant, anti-M13 HRP detection
T3 construct: In the phage ELISA the Fab was biotinylated and captured on neutravidin coated plates
T3 sequence (VH, as listed by the source, chain 1 of 2): as the sequence (VH, as listed by the source, chain 1 of 2) above
T3 sequence (VL, as listed by the source, chain 2 of 2): as the sequence (VL, as listed by the source, chain 2 of 2) above

In order of falling “Anti-CD28 Fab signal (phage binding ELISA)” value:
1. YCEGHMPEYLAKCL [Phage-1156]  1.18
2. YCAGHSSEYIGKCL [Phage-1159]  1.17
3. YCEGHAEQYMEKCL [Phage-1162]  1.17
4. YCEGHSQTYMWKCL [Phage-1158]  1.17
5. YCEGHSQQYMWKCL [Phage-1160]  1.17
6. YCEGHAGVYMAKCL [Phage-1157]  1.17
7. YCDGHLPDYMAKCL [Phage-1161]  1.17
8. YCEGHLKEYMQKCL [Phage-1163]  1.17
9. YCEGHRAEYMSKCL [Phage-1165]  1.16
10. YCEGHSYQYMQKCL [Phage-1164]  1.16
11. YCDGHSWIYMVKCL [Phage-1166]  1.16
12. YCEGHLPQYMSKCL [Phage-1168]  1.15
13. YCDGHLSVYMSKCL [Phage-1167]  1.15

target: T3, Anti-CD28 Fab (SEQ ID NOs: 696, 697); assay: phage binding ELISA with the Fab-coated wells pre-incubated with CD28 antigen (competitor: CD28), anti-M13 HRP detection
Protocol: as §1, §2

In order of falling “Anti-CD28 Fab signal in the presence of CD28 (phage binding ELISA)” value:
1. YCEGHLPQYMSKCL [Phage-1168]  0.09
2. YCEGHRAEYMSKCL [Phage-1165]  0.09
3. YCEGHAEQYMEKCL [Phage-1162]  0.08
4. YCEGHSQTYMWKCL [Phage-1158]  0.08
5. YCDGHLSVYMSKCL [Phage-1167]  0.07
6. YCEGHMPEYLAKCL [Phage-1156]  0.07
7. YCDGHLPDYMAKCL [Phage-1161]  0.07
8. YCEGHLKEYMQKCL [Phage-1163]  0.07
9. YCAGHSSEYIGKCL [Phage-1159]  0.06
10. YCEGHSYQYMQKCL [Phage-1164]  0.06
11. YCDGHSWIYMVKCL [Phage-1166]  0.06
12. YCEGHSQQYMWKCL [Phage-1160]  0.05
13. YCEGHAGVYMAKCL [Phage-1157]  0.05
